Test system: MS2 coat protein
Assay: apparent KD of MS2 coat protein; designed switch direction (-1 OFF switch, 1 ON switch): -1; higher = weaker reporter binding
How it was run: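 Designed RNA switches sharing common flanks were transcribed on Illumina chips by stalled E. coli RNA polymerase. They were titrated with SNAP-549-labelled MS2 coat protein, from 0.7 or 1.5 nM doubling to 3 µM, in Tris-HCl pH 7.5 buffer with KCl, MgCl2, BSA, DTT, tRNA and Tween-20. Titrations ran without input, with 200 uM small-molecule ligand, or with an oligonucleotide input. The apparent KD of each design is the median over its clusters, after curve-fitting of normalised cluster fluorescence.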

[1] = input ligand: microRNA oligo, concentration not stated
[2] = Eterna round: R95, input ligand: microRNA oligo, concentration not stated
[3] = Eterna round: R95, input ligand: FMN 200 uM
[4] = Eterna round: R95, input ligand: none

Sequence | apparent KD of MS2 coat protein (input ligand: FMN 200 uM) | apparent KD of MS2 coat protein (input ligand: none) | apparent KD of MS2 coat protein [1] | apparent KD of MS2 coat protein [2] | apparent KD of MS2 coat protein [3] | apparent KD of MS2 coat protein [4]
CGGAUACAUGAGGAUCACCCAUGUGAGGAUAUCGUACGUUCGUCGAUAGACGAUCGUACGAGAAGGCAUGACCG [Mat - Exclusion 1 - Eli Mod - D34] (Eterna round: R97, puzzle: Exclusion 1) | 71.3 nM | 200 nM | – | – | – | –
CGGCAUGUCUGAGGAUAUCUGCACGAUUAGUGCAGAGAAGGCAGAACAUGAGGAUCACCCAUGUAGAUCAUUAACCGAUUAAUU [ENG1/7-A1] (Eterna round: R96, puzzle: Exclusion NG 1) | 275 nM | 194 nM | 127 nM | – | – | –
CGGCCGUUUGUAAGGAUAUAACUAGUUGCGACCAGUUAGAAGGUACAUGAGGAUCACCCAUGUCUUCCAGUGGC [Eternabot (L1) Solution 76] (Eterna round: R97, puzzle: Brourd's mod of Exclusion 4) | 16.2 nM | 15.1 nM | – | – | – | –
CGGCGGGCAGGAUAUGGUAAUAAUUACAUGAGGAUCACCCAUGUGGAUAUAUGGGAAUAACCAGAAGGGCUUGUUG [-20.1, -20 kcal, A 30%] (Eterna round: R97, puzzle: Exclusion 5) | 63.2 nM | 74.4 nM | – | – | – | –
CGGGAGGAAGGAUAUACACGGCCUCCUAGAAUAAAUCCUGGACAUGAGGAUCACCCAUGUAGAAGGUCCACCGA [Tiuslala] (puzzle: Exclusion 2) | – | – | – | 17.3 nM | – | –
CGGGCAGCAGGAUAUACAUAGGUCAACAGAAAUGAGUAUUGACAUGAGGAUCACCCAUGUAGAAGGGCUGUACC [Eternabot (L2) Solution 96] (Eterna round: R97, puzzle: Exclusion 2) | 412 nM | 391 nM | – | – | – | –
CGGGCGCGUGUAGGAUAUCGGGCCCGGUGGGCCCGAGAAGGACAUGAGGAUCACCCAUGUGCCCGGGUUGCCCGGGCGCGCCCG [-50, -49 kcal and 14% A] (Eterna round: R96, puzzle: Exclusion NG 1) | 14.6 nM | 14.5 nM | 7.82 nM | – | – | –
CGGUAGUGCUCAGGAUAUACAUGAGGAUCACCCAUGUAACUAGAAUCGGUCGUCCGAUCAGUGGUGUAGAAGGGAGGCUGGCUG [random 1, A 25%] (Eterna round: R96, puzzle: Exclusion NG 2) | 32.1 nM | 31.5 nM | 22 nM | – | – | –
CGUACUAAAGUCAGGAUAUUGUCUCGGAUACGAAACAAGAAGGGACAUGAGGAUCACCCAUGUAGAUAGUACGA [Malc #30 mod 5] (puzzle: Brourd's mod of Exclusion 4) | – | – | – | 23.4 nM | 16.9 nM | 26.6 nM
CGUACUGAAGUCAGGAUAUUGUCUCGGAUACGAAACAAGAAGGGACAUGAGGAUCACCCAUGUGGACAGUACGA [Malc #30 mod 6] (puzzle: Brourd's mod of Exclusion 4) | – | – | – | 44 nM | 38.3 nM | 36.7 nM
CGUCUGUCAGGAUAUGGUUACAUAGACAUGAGGAUCACCCAUGUGACGUGGGACUAGUGAUUAGAAGGGACGAACG [EX5 #69] (Eterna round: R97, puzzle: Exclusion 5) | 36.5 nM | 31.7 nM | – | – | – | –
CGUGACUAAGGAUAUACAUGAGGAUCACCCAUGUGAUUCAAGAUUUUCGACUGGAGAGGUAGAAGGUGGAUGCC [Eternabot (L1) Solution 99] (Eterna round: R97, puzzle: Exclusion 3) | 63.3 nM | 94.4 nM | – | – | – | –
CGUGACUCAGGAUAUCUAUAAUAUCACAUGAGGAUCACCCAUGUCCAGCGAAAGCUGGAGAGAGAAGGGAGUCACG [Fiskers Ex 5 - 36] (puzzle: Exclusion 5) | – | – | – | 67.3 nM | 67.7 nM | 61.5 nM
CGUGACUGAGGAUAUCUAUAAUGUCACAUGAGGAUCACCCAUGUCCAGCGAAAGCUGGAGGGAGAAGGCAGUCACG [Fiskers Ex 5 - 33] (puzzle: Exclusion 5) | – | – | – | 55.5 nM | 29.4 nM | 74.6 nM
CGUGCGUAUGUGAGGAUAUGCUGGUCCUUGGAUCGGCAGAAGGCACAUGAGGAUCACCCAUGUGGUGUCGUCCA [salish99_Bmod_ex4_089] (puzzle: Brourd's mod of Exclusion 4) | – | – | – | 85.7 nM | – | –
CGUGGCCAAGGAUAUGGGUAUCAUGACAUGAGGAUCACCCAUGUAUAGAGGAUCCAUAGCCCAGAAGGUGGUCCGG [Eternabot (L1) Solution 85] (Eterna round: R97, puzzle: Exclusion 5) | 44 nM | 17 nM | – | – | – | –
CGUGUGUCAGGAUAUUAGUAAUGUAUGGAUACAUAUAUUACUGAGAAGGGACAUGAGGAUCACCCAUGUAUACG [JR_Ex4_Sub059] (Eterna round: R97, puzzle: Exclusion 4) | 158 nM | 79.9 nM | – | – | – | –

Sequence | apparent KD of MS2 coat protein (input ligand: FMN 200 uM) | apparent KD of MS2 coat protein (input ligand: none) | apparent KD of MS2 coat protein [1] | apparent KD of MS2 coat protein [2] | apparent KD of MS2 coat protein [3] | apparent KD of MS2 coat protein [4]
CGUUCGCGAGGAUAUGCAUUCGAGUCCACUACGUGUCUGGGACUUGAGGAUCACCCAAGUAGAAGGCGCCUCAA [salish99_ex2_r4_651] (Eterna round: R97, puzzle: Exclusion 2) | 171 nM | 230 nM | – | – | – | –
CGUUGUCAAGGAUAUAUAGAGCUAUACAUGAGGAUCACCCAUGUGGUUAGUGUUGUGUGAGUAGAAGGUGGAAUGU [Eternabot (L2) Solution 99] (Eterna round: R97, puzzle: Exclusion 5) | 84.3 nM | 224 nM | – | – | – | –
CUAAAAGUGAUCACAGGAACAUGAGGAUCACCCAUGUGCCUCAAGGAUAUGCACGGCUAUCCAGGGUAGAAGGUGAGAAUGCAC [Eternabot solution 30] (Eterna round: R96, puzzle: Exclusion NG 3) | 68.3 nM | 100 nM | 104 nM | – | – | –
CUAAAUCAUGUAGGAUAUGCAUAGCGAAGCUAUGCAGAAGGACAUGAGGAUCACCCAUGUUCUUCCGUCUGCGUACAGACGGAA [Mat - Exclusion NG 1 - Mod of JL - D30] (Eterna round: R96, puzzle: Exclusion NG 1) | 268 nM | 33.5 nM | 32.4 nM | – | – | –
CUAAAUCAUGUAGGAUAUGCGUGGCGAAGCUAUGCAGAAGGACAUGAGGAUCACCCAUGUGCUUCCGUCUGCGUACAGACGGAA [JL ENG1 1.17] (Eterna round: R96, puzzle: Exclusion NG 1) | 328 nM | 255 nM | 222 nM | – | – | –
CUAACAUGCUGGUGAUCAUACAUGAGGAUCACCCAUGUAACAAGCUUUUUGUUCGUCUUAAUUUAAUUGAUUACUAG [Stov1/8-B3] (Eterna round: R97, puzzle: Sensor, turn-off variant 1) | 177 nM | 254 nM | – | – | – | –
CUAAUACAUCAGGAUAUGAUAGCCUAUAGCAUAUCAGAAGGGAUGACAUGAGGAUCACCCAUGUCAAAGGGUGA [eternacac ex6r4 sub19] (Eterna round: R97, puzzle: Exclusion 6) | 396 nM | 444 nM | – | – | – | –
CUAGAUCUUCGGAUCUAGUACAUGAGGAUCACCCAUGUGACGAGUUACAUGAAAAACAAGCUUUUUGCUCGUCUUAU [Sensor v3 - Turn-off variant 1 - 8] (puzzle: Sensor v3, turn-off variant 1) | – | – | – | 102 nM | 41.6 nM | 46.6 nM
CUAGCGAAUGUAGGAUAUCGGACUGUUUCAGUCUGAGAAGGACAUGAGGAUCACCCAUGUAUAGCUACGUGAGUAGCUCGCUAG [JL ENG1 3.91] (Eterna round: R96, puzzle: Exclusion NG 1) | 43.6 nM | 17.1 nM | 13 nM | – | – | –
CUAGUCCGAGGAUAUAUAUUGUGAAACAUGAGGAUCACCCAUGUUAUAAUAUGGAAAUAAAUAGAAGGCGGACUAG [Mat - Exclusion 5 - JL mod - D57] (puzzle: Exclusion 5) | – | – | – | 38.5 nM | 23.3 nM | 18.8 nM
CUAGUCCGAGGAUAUAUUAUGUGAAACAUGAGGAUCACCCAUGUUAUAUGAUGGAUGAAAAUAGAAGGCGGACUAG [Mat - Exclusion 5 - JL mod - D61] (puzzle: Exclusion 5) | – | – | – | 72.8 nM | 20.4 nM | 88.1 nM
CUAGUCCGAGGAUAUAUUAUGUGAUACAUGAGGAUCACCCAUGUUAUAUGAUGGAUGUUAAUAGAAGGCGGACUAG [Mat - Exclusion 5 - JL mod - D72] (puzzle: Exclusion 5) | – | – | – | 118 nM | 246 nM | 110 nM
CUAUAGUAUGUAGGAUAUCGGUCAGUUUCUGAUCGAGAAGGACAUGAGGAUCACCCAUGUAAGGCUACCGGUUUCUGGUGGCCG [JL ENG1 3.54] (Eterna round: R96, puzzle: Exclusion NG 1) | 61.6 nM | 23.6 nM | 18.5 nM | – | – | –
CUAUUCCGAGGAUAUACAUGAGGAUCACCCAUGUCGGGCCUCCGCGUUUAGCGCCUCAGUAGAAGGCGGGUUUC [JL Riri mod 2] (puzzle: Exclusion 3) | – | – | – | 17.2 nM | – | –
CUCAGUGGUGAGGAUAUGCGCGCCCAAUGGACGGUAGAAGGUACUACAUGAGGAUCACCCAUGUAGCGAAGAUU [Eternabot (L1) Solution 49] (Eterna round: R97, puzzle: Exclusion 6) | 15.9 nM | 15.8 nM | – | – | – | –
CUCCGGCCUGUAGGAUAUGGAUCCGAUUAGGAUCCAGAAGGACAUGAGGAUCACCCAUGUACAUGUAAACAGUCAUCACCGGAC [salish99_ExNG1_r04_203] (Eterna round: R96, puzzle: Exclusion NG 1) | 23.8 nM | 16.7 nM | 15.2 nM | – | – | –

From the supplement of paper PMC9170038
